How the values were obtained:
Test in all cases: IEDB peptide-MHC binding, purified MHC/competitive/radioactivity; filed as Kd, often an IC50 or EC50 that approximates it; ≥ and ≤ were set here for values at or beyond the usual limits of such assays
Settings in all cases: source organism: Influenza A virus
HLA-A*33:01 = target: HLA-A*33:01
HLA-A*03:01 = target: HLA-A*03:01
HLA-A*31:01 = target: HLA-A*31:01
HLA-A*68:01 = target: HLA-A*68:01
HLA-A*11:01 = target: HLA-A*11:01
HLA-A*02:03 = target: HLA-A*02:03
HLA-A*68:02 = target: HLA-A*68:02
HLA-A*02:02 = target: HLA-A*02:02
HLA-A*02:06 = target: HLA-A*02:06
HLA-A*02:01 = target: HLA-A*02:01
HLA-A*23:01 = target: HLA-A*23:01
HLA-A*29:02 = target: HLA-A*29:02
HLA-A*24:02 = target: HLA-A*24:02
HLA-A*30:02 = target: HLA-A*30:02
HLA-B*18:01 = target: HLA-B*18:01
HLA-B*45:01 = target: HLA-B*45:01
HLA-B*44:02 = target: HLA-B*44:02
HLA-B*44:03 = target: HLA-B*44:03
HLA-B*40:01 = target: HLA-B*40:01
HLA-B*40:02 = target: HLA-B*40:02
HLA-B*53:01 = target: HLA-B*53:01
HLA-B*54:01 = target: HLA-B*54:01
HLA-B*51:01 = target: HLA-B*51:01
HLA-B*35:01 = target: HLA-B*35:01
HLA-A*01:01 = target: HLA-A*01:01

ASCMGLIYNR
Kd (HLA-A*33:01): 445 nM | Kd (HLA-A*03:01): 816 nM | Kd (HLA-A*31:01): 7 nM | Kd (HLA-A*68:01): 391 nM | Kd (HLA-A*11:01): 32 nM

CLPACVYGL
Kd (HLA-A*02:03): 143 nM | Kd (HLA-A*68:02): 3770 nM | Kd (HLA-A*02:02): 4 nM | Kd (HLA-A*02:06): 95 nM | Kd (HLA-A*02:01): 79 nM

FQGRGVFEL
Kd (HLA-A*02:03): 307 nM | Kd (HLA-A*68:02): ≥ 10000 nM | Kd (HLA-A*02:02): 7 nM | Kd (HLA-A*02:06): 7 nM | Kd (HLA-A*02:01): 143 nM

FQVDCFLWHV
Kd (HLA-A*02:03): 3 nM | Kd (HLA-A*68:02): 219 nM | Kd (HLA-A*02:02): 4 nM | Kd (HLA-A*02:06): ≤ 1 nM | Kd (HLA-A*02:01): 4 nM

FYIQMCTEL
Kd (HLA-A*23:01): 8 nM | Kd (HLA-A*29:02): 1560 nM | Kd (HLA-A*24:02): 24 nM | Kd (HLA-A*30:02): ≥ 10000 nM

FYRYGFVANF
Kd (HLA-A*23:01): 13 nM | Kd (HLA-A*29:02): 812 nM | Kd (HLA-A*24:02): 17 nM | Kd (HLA-A*30:02): ≥ 10000 nM

GERQNATEI
Kd (HLA-B*18:01): ≥ 10000 nM | Kd (HLA-B*45:01): 304 nM | Kd (HLA-B*44:02): ≥ 10000 nM | Kd (HLA-B*44:03): ≥ 10000 nM | Kd (HLA-B*40:01): 199 nM | Kd (HLA-B*40:02): 53 nM

GTFEFTSFFY
Kd (HLA-A*33:01): 5410 nM | Kd (HLA-A*03:01): 16 nM | Kd (HLA-A*31:01): 242 nM | Kd (HLA-A*68:01): 100 nM | Kd (HLA-A*11:01): ≤ 1 nM

KFLPDLYDYK
Kd (HLA-A*33:01): ≥ 10000 nM | Kd (HLA-A*03:01): 255 nM | Kd (HLA-A*31:01): 2410 nM | Kd (HLA-A*68:01): 507 nM | Kd (HLA-A*11:01): 22 nM

KLVGINMSKK
Kd (HLA-A*33:01): ≥ 10000 nM | Kd (HLA-A*03:01): 14 nM | Kd (HLA-A*31:01): 518 nM | Kd (HLA-A*68:01): 1610 nM | Kd (HLA-A*11:01): 315 nM

KSCLPACVY
Kd (HLA-A*29:02): ≥ 10000 nM | Kd (HLA-A*30:02): 43 nM

LPRRSGAAGA
Kd (HLA-B*53:01): ≥ 10000 nM | Kd (HLA-B*54:01): 47 nM | Kd (HLA-B*51:01): ≥ 10000 nM | Kd (HLA-B*35:01): ≥ 10000 nM

NMLSTVLGV
Kd (HLA-A*02:03): 11 nM | Kd (HLA-A*68:02): 1060 nM | Kd (HLA-A*02:02): 5 nM | Kd (HLA-A*02:06): 3 nM

QEIRTFSFQL
Kd (HLA-B*18:01): 515 nM | Kd (HLA-B*45:01): 380 nM | Kd (HLA-B*44:02): 102 nM | Kd (HLA-B*44:03): 431 nM | Kd (HLA-B*40:01): 135 nM | Kd (HLA-B*40:02): 68 nM

RLFFKCIYRR
Kd (HLA-A*33:01): 238 nM | Kd (HLA-A*03:01): 135 nM | Kd (HLA-A*31:01): 5 nM | Kd (HLA-A*68:01): 88 nM | Kd (HLA-A*11:01): 294 nM

SEQAAEAMEV
Kd (HLA-B*18:01): 1900 nM | Kd (HLA-B*45:01): 35 nM | Kd (HLA-B*44:02): 2640 nM | Kd (HLA-B*44:03): 7670 nM | Kd (HLA-B*40:01): 2670 nM | Kd (HLA-B*40:02): 85 nM

SFSFGGFTFK
Kd (HLA-A*33:01): 85 nM

SVQPTFSVQR
Kd (HLA-A*33:01): 181 nM | Kd (HLA-A*03:01): ≥ 10000 nM | Kd (HLA-A*31:01): 21 nM | Kd (HLA-A*68:01): 84 nM | Kd (HLA-A*11:01): 37 nM

SVQRNLPFER
Kd (HLA-A*33:01): 321 nM | Kd (HLA-A*03:01): ≥ 10000 nM | Kd (HLA-A*31:01): 104 nM | Kd (HLA-A*68:01): 19 nM | Kd (HLA-A*11:01): 411 nM

TEVETYVLSI
Kd (HLA-B*18:01): 136 nM | Kd (HLA-B*45:01): 504 nM | Kd (HLA-B*44:02): 6880 nM | Kd (HLA-B*44:03): 247 nM | Kd (HLA-B*40:01): 133 nM | Kd (HLA-B*40:02): 195 nM

VLRGFLILGK
Kd (HLA-A*33:01): ≥ 10000 nM | Kd (HLA-A*03:01): 10 nM | Kd (HLA-A*31:01): 85 nM | Kd (HLA-A*68:01): 1160 nM | Kd (HLA-A*11:01): 460 nM

YSHGTGTGY
Kd (HLA-A*29:02): 486 nM | Kd (HLA-A*01:01): 199 nM | Kd (HLA-A*30:02): 131 nM
